In PMC7413564, “Phase separation of Arabidopsis EMB1579 controls transcription, mRNA splicing, and development” (PLoS Biology, 2020):
Each block holds one binder with its values, some of them ahead of it.

Biological target: T1, Oregon Green-labeled EMB1579 (Arabidopsis thaliana, UniProt F4IS91-1 1-1340, Oregon Green label (site not stated))
T1 construct: full-length CDS amplified from seedling cDNA; phase-separated in F-buffer in the assay; also called Oregon Green-EMB1579; EMB1579 condensates; source: Sf9 insect cells (pFastBac1-EMB1579), purified (Ni-NTA, SuperDex 200 Increase), labelled with Oregon Green
T1 sequence (looked up): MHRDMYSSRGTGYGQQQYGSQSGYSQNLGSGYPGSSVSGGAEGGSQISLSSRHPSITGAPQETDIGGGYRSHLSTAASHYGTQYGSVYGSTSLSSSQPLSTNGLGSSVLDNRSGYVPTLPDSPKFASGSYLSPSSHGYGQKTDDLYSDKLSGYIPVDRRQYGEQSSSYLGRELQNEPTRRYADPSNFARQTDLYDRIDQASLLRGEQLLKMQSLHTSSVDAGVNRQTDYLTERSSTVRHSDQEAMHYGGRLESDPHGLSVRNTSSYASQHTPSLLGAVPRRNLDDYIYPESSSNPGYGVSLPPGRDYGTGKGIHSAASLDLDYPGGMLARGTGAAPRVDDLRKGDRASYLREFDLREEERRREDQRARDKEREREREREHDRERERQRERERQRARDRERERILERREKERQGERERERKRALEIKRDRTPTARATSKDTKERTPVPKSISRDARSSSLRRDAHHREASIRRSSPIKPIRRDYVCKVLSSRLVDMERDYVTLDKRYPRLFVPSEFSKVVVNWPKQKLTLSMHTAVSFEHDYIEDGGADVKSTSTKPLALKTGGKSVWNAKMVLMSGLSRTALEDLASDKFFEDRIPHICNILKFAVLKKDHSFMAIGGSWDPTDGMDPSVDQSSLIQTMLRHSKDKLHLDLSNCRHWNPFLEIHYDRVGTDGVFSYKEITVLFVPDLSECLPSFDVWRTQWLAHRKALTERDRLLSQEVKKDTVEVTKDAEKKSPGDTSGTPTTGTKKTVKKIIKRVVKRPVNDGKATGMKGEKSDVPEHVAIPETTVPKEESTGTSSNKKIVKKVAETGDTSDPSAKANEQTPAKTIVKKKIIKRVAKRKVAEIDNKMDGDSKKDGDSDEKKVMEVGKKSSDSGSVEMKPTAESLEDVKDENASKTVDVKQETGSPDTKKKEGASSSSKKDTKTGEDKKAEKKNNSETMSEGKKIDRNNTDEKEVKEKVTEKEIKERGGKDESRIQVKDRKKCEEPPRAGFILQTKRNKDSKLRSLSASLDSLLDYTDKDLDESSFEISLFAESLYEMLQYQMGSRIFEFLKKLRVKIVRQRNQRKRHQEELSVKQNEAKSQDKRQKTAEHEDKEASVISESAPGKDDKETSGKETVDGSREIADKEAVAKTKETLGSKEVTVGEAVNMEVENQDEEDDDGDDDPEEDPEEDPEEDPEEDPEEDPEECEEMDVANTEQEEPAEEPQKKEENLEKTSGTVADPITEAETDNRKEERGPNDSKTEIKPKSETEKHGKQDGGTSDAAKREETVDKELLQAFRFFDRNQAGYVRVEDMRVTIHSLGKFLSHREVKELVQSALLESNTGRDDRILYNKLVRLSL
Experiment: recruitment into condensates in vitro (confocal fluorescence microscopy); Oregon Green-labeled EMB1579 (2.5 μM) with mCherry-DDB1B (500 nM) or mCherry-MSI4 (20 nM) in F-buffer (25 mM Hepes pH 8.0, 100 mM KCl, 100 mg/ml PEG 3350), 5 minutes, room temperature
Conditions: both partners purified

binding result: binds
B1: mCherry-DDB1B (natural protein, Arabidopsis thaliana, UniProt O49552 1-1088, looked up)
chain: MSVWNYAVTAQKPTCVTHSCVGNFTSPQELNLIVAKSTRIEIHLLSPQGLQTILDVPLYGRIATMELFRPHGEAQDFLFVATERYKFCVLQWDYESSELITRAMGDVSDRIGRPTDNGQIGIIDPDCRVIGLHLYDGLFKVIPFDNKGQLKEAFNIRLEELQVLDIKFLYGCTKPTIAVLYQDNKDARHVKTYEVSLKDKNFVEGPWSQNNLDNGADLLIPVPSPLCGVLIIGEETIVYCSANAFKAIPIRPSITKAYGRVDLDGSRYLLGDHAGLIHLLVITHEKEKVTGLKIELLGETSIASSISYLDNAVVFVGSSYGDSQLIKLNLQPDAKGSYVEILEKYVNLGPIVDFCVVDLERQGQGQVVTCSGAYKDGSLRIVRNGIGINEQASVELQGIKGMWSLKSSIDEAFDTFLVVSFISETRILAMNIEDELEETEIEGFLSEVQTLFCHDAVYNQLVQVTSNSVRLVSSTTRELRNKWDAPAGFSVNVATANASQVLLATGGGHLVYLEIGDGTLTEVKHVLLEYEVSCLDINPIGDNPNYSQLAAVGMWTDISVRIFVLPDLTLITKEELGGEIIPRSVLLCAFEGISYLLCALGDGHLLNFQLDTSCGKLRDRKKVSLGTRPITLRTFSSKSATHVFAASDRPAVIYSNNKKLLYSNVNLKEVSHMCPFNSAAFPDSLAIAREGELTIGTIDDIQKLHIRTIPIGEHARRICHQEQTRTFAISCLRNEPSAEESESHFVRLLDAQSFEFLSSYPLDAFECGCSILSCSFTDDKNVYYCVGTAYVLPEENEPTKGRILVFIVEEGRLQLITEKETKGAVYSLNAFNGKLLASINQKIQLYKWMLRDDGTRELQSECGHHGHILALYVQTRGDFIAVGDLMKSISLLIYKHEEGAIEERARDYNANWMTAVEILNDDIYLGTDNCFNIFTVKKNNEGATDEERARMEVVGEYHIGEFVNRFRHGSLVMKLPDSDIGQIPTVIFGTVSGMIGVIASLPQEQYAFLEKLQTSLRKVIKGVGGLSHEQWRSFNNEKRTAEAKGYLDGDLIESFLDLSRGKMEEISKGMDVQVEELCKRVEELTRLH
notes: DDB1B, Arabidopsis; amplified with DDB1B-EcoRI-F/DDB1B-SalI-R2 from pFGC5941-DDB1B-RFP and moved into pColdI behind mCherry; source: E. coli BL21 (DE3) (pColdI-mCherry-DDB1B), purified (Ni-NTA); not shown: mCherry, N-terminal, kept

binding result: binds
B2: mCherry-MSI4 (natural protein, Arabidopsis thaliana, UniProt O22607 1-507, looked up)
chain: MESDEAAAVSPQATTPSGGTGASGPKKRGRKPKTKEDSQTPSSQQQSDVKMKESGKKTQQSPSVDEKYSQWKGLVPILYDWLANHNLVWPSLSCRWGPQLEQATYKNRQRLYLSEQTDGSVPNTLVIANCEVVKPRVAAAEHISQFNEEARSPFVKKYKTIIHPGEVNRIRELPQNSKIVATHTDSPDVLIWDVETQPNRHAVLGAANSRPDLILTGHQDNAEFALAMCPTEPFVLSGGKDKSVVLWSIQDHITTIGTDSKSSGSIIKQTGEGTDKNESPTVGPRGVYHGHEDTVEDVAFSPTSAQEFCSVGDDSCLILWDARTGTNPVTKVEKAHDADLHCVDWNPHDDNLILTGSADNTVRLFDRRKLTANGVGSPIYKFEGHKAAVLCVQWSPDKSSVFGSSAEDGLLNIWDYDRVSKKSDRAAKSPAGLFFQHAGHRDKVVDFHWNASDPWTIVSVSDDCETTGGGGTLQIWRMSDLIYRPEEEVVAELEKFKSHVMTCASKP
notes: MSI4, Arabidopsis; amplified with MSI4-SalI-F/MSI4-XbaI-R2 from pEZS-NL-RFP-MSI4 and moved into pColdI-mCherry; also called recombinant MSI4 protein; source: E. coli BL21 (DE3) (pColdI-mCherry-MSI4), purified (Ni-NTA); not shown: mCherry, N-terminal, kept
